Results from the supplement of paper PMC9112550, “Optimization of the antimicrobial peptide Bac7 by deep mutational scanning” (BMC Biology, 2022).

These sequences were tested on Escherichia coli TOP10 (assay: shrunken log2 fold change of peptide-encoding DNA abundance (4.5 h post-induction vs induction); higher = less antimicrobial activity (less host growth inhibition)). Settings: time post-induction: 4.5 h; library: site-saturation at positions 5, 18, 19, 20.
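Further: peptides expressed intracellularly from a pBAD plasmid library in pooled LB shake-flask culture, induced with 0.3% L-arabinose, DNA abundance read by NGS, three biological replicates, DESeq2 with apeglm shrinkage.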

Sequence | shrunken log2 fold change
RRIRQRPPRLPRPRPRPHDKPRP | -0.773
RRIRVRPPRLPRPRPRPAEYPRP | -0.124
RRIRWRPPRLPRPRPRPKVLPRP | 0.155
RRIRDRPPRLPRPRPRPFFTPRP | -0.024
RRIRQRPPRLPRPRPRPNHHPRP | -0.864
RRIRCRPPRLPRPRPRPINHPRP | -0.607
RRIRTRPPRLPRPRPRPNVTPRP | -0.182
RRIRGRPPRLPRPRPRPVHEPRP | 0.434
RRIRRRPPRLPRPRPRPMKDPRP | 0.19
RRIRLRPPRLPRPRPRPISKPRP | -0.125
RRIRFRPPRLPRPRPRPGIQPRP | -0.11
RRIRLRPPRLPRPRPRPIWEPRP | 0.0805
RRIRARPPRLPRPRPRPWAIPRP | 0.253
RRIRQRPPRLPRPRPRPVLWPRP | 0.193
RRIRCRPPRLPRPRPRPGFYPRP | -0.449
RRIRLRPPRLPRPRPRPYHWPRP | -0.188
RRIRRRPPRLPRPRPRPVQVPRP | 0.189
RRIRSRPPRLPRPRPRPMSEPRP | 0.0489
RRIRLRPPRLPRPRPRPGIMPRP | -0.219
RRIRNRPPRLPRPRPRPCYKPRP | -0.173
RRIRLRPPRLPRPRPRPWGWPRP | 0.264
RRIRHRPPRLPRPRPRPQYTPRP | -1.27
RRIRSRPPRLPRPRPRPWNRPRP | -0.125
RRIRRRPPRLPRPRPRPQRNPRP | 0.245
RRIRPRPPRLPRPRPRPPFVPRP | 0.139

Sequence | shrunken log2 fold change
RRIRIRPPRLPRPRPRPSMEPRP | -0.343
RRIRKRPPRLPRPRPRPGNKPRP | -0.0985
RRIRIRPPRLPRPRPRPWLLPRP | -0.0948
RRIRLRPPRLPRPRPRPFYTPRP | -0.338
RRIRYRPPRLPRPRPRPISWPRP | -0.0102
RRIRYRPPRLPRPRPRPRKMPRP | -0.178
RRIRVRPPRLPRPRPRPAMNPRP | -0.498
RRIRKRPPRLPRPRPRPDLLPRP | 0.237
RRIRYRPPRLPRPRPRPTITPRP | -0.665
RRIRSRPPRLPRPRPRPQNIPRP | -0.657
RRIRERPPRLPRPRPRPAPTPRP | 0.199
RRIRHRPPRLPRPRPRPANWPRP | 0.135
RRIRDRPPRLPRPRPRPCMNPRP | 0.119
RRIRFRPPRLPRPRPRPNMEPRP | -0.129
RRIRKRPPRLPRPRPRPQQVPRP | -0.0532
RRIRCRPPRLPRPRPRPEYLPRP | -0.258
RRIRTRPPRLPRPRPRPSYGPRP | -0.259
RRIRARPPRLPRPRPRPYYCPRP | -0.331
RRIRHRPPRLPRPRPRPNSVPRP | -0.00436
RRIRIRPPRLPRPRPRPVMLPRP | -0.776
RRIRCRPPRLPRPRPRPCRIPRP | -0.271
RRIRHRPPRLPRPRPRPQPDPRP | -0.0791
RRIRVRPPRLPRPRPRPFTVPRP | -0.105
RRIRYRPPRLPRPRPRPCFLPRP | -1
RRIRARPPRLPRPRPRPIANPRP | 0.103

Sequence | shrunken log2 fold change
RRIRGRPPRLPRPRPRPFPWPRP | 0.383
RRIRARPPRLPRPRPRPVQSPRP | 0.14
RRIRRRPPRLPRPRPRPPKSPRP | 0.37
RRIRTRPPRLPRPRPRPLDSPRP | -0.0239
RRIRERPPRLPRPRPRPHEVPRP | -0.0812
RRIRERPPRLPRPRPRPKRRPRP | 0.143
RRIRLRPPRLPRPRPRPCCRPRP | 0.0477
RRIRVRPPRLPRPRPRPGQYPRP | -0.113
RRIRWRPPRLPRPRPRPRYKPRP | -0.104
RRIRLRPPRLPRPRPRPTPHPRP | 0.322
RRIRPRPPRLPRPRPRPISCPRP | -0.0606
RRIRSRPPRLPRPRPRPMNFPRP | -0.0407
RRIRMRPPRLPRPRPRPICEPRP | 0.241
RRIRQRPPRLPRPRPRPTYAPRP | -0.0832
RRIRRRPPRLPRPRPRPPWYPRP | 0.0413
RRIRWRPPRLPRPRPRPQSIPRP | -0.584
RRIRWRPPRLPRPRPRPSHRPRP | -0.271
RRIRARPPRLPRPRPRPGFEPRP | 0.735
RRIRVRPPRLPRPRPRPECLPRP | 0.0466
RRIRERPPRLPRPRPRPNESPRP | 0.0842
RRIRPRPPRLPRPRPRPWFSPRP | -0.255
RRIRHRPPRLPRPRPRPANIPRP | -0.291
RRIRARPPRLPRPRPRPCMHPRP | -0.226
RRIRMRPPRLPRPRPRPIWFPRP | 0.1
RRIRYRPPRLPRPRPRPAAYPRP | -0.387

Sequence | shrunken log2 fold change
RRIRDRPPRLPRPRPRPCYQPRP | -0.0177
RRIRNRPPRLPRPRPRPTWNPRP | -0.0528
RRIRDRPPRLPRPRPRPHRNPRP | -0.0138
RRIRIRPPRLPRPRPRPDMTPRP | -0.01
RRIRERPPRLPRPRPRPDPHPRP | -0.011
RRIRARPPRLPRPRPRPVYAPRP | 0.205
RRIRNRPPRLPRPRPRPPNNPRP | -0.598
RRIRGRPPRLPRPRPRPFFAPRP | 0.747
RRIRARPPRLPRPRPRPKWHPRP | 0.235
RRIRWRPPRLPRPRPRPIEHPRP | -0.133
RRIRVRPPRLPRPRPRPTMPPRP | 0.24
RRIRCRPPRLPRPRPRPANIPRP | -0.443
RRIRKRPPRLPRPRPRPSMQPRP | 0.293
RRIRFRPPRLPRPRPRPKMFPRP | -0.323
RRIRCRPPRLPRPRPRPGNFPRP | -0.0984
RRIRERPPRLPRPRPRPDLDPRP | -0.0232
RRIRYRPPRLPRPRPRPPRDPRP | 0.102
RRIRLRPPRLPRPRPRPMSIPRP | -0.159
RRIRVRPPRLPRPRPRPDELPRP | -0.0586
RRIRVRPPRLPRPRPRPYLEPRP | -0.141
RRIRYRPPRLPRPRPRPAWIPRP | -0.259
RRIRERPPRLPRPRPRPKMHPRP | -0.134
RRIRARPPRLPRPRPRPWHQPRP | 0.0524
RRIRWRPPRLPRPRPRPTPNPRP | 0.519
RRIRSRPPRLPRPRPRPMITPRP | -0.19

Sequence | shrunken log2 fold change
RRIRTRPPRLPRPRPRPLGDPRP | -0.109
RRIRRRPPRLPRPRPRPQDEPRP | -0.0204
RRIRKRPPRLPRPRPRPPCRPRP | 0.264
RRIRCRPPRLPRPRPRPRYGPRP | -0.499
RRIRPRPPRLPRPRPRPTAQPRP | 0.357
RRIRDRPPRLPRPRPRPYEYPRP | -0.17
RRIRARPPRLPRPRPRPEIKPRP | 1.77
RRIRCRPPRLPRPRPRPKDKPRP | 0.401
RRIRWRPPRLPRPRPRPMNTPRP | -0.28
RRIRQRPPRLPRPRPRPQHTPRP | -0.69
RRIRNRPPRLPRPRPRPERRPRP | 0.237
RRIRHRPPRLPRPRPRPTWKPRP | -0.011
RRIRWRPPRLPRPRPRPTNFPRP | 0.0339
RRIRDRPPRLPRPRPRPDMNPRP | 0.287
RRIRYRPPRLPRPRPRPVFMPRP | -0.484
RRIRHRPPRLPRPRPRPEMTPRP | 0.0257
RRIRFRPPRLPRPRPRPGFNPRP | -0.22
RRIRRRPPRLPRPRPRPLPAPRP | 0.599
RRIRMRPPRLPRPRPRPAKVPRP | 0.303
RRIRARPPRLPRPRPRPHFEPRP | 0.703
RRIRLRPPRLPRPRPRPNDPPRP | -0.213
RRIRARPPRLPRPRPRPEFSPRP | 1.27
RRIRCRPPRLPRPRPRPAENPRP | 0.000461
RRIRLRPPRLPRPRPRPYNWPRP | -0.0937
RRIRMRPPRLPRPRPRPVLCPRP | 0.182

Sequence | shrunken log2 fold change
RRIRDRPPRLPRPRPRPKFRPRP | 0.152
RRIRLRPPRLPRPRPRPWCGPRP | -0.0859
RRIRSRPPRLPRPRPRPANWPRP | 0.343
RRIRGRPPRLPRPRPRPQQNPRP | 0.383
RRIRMRPPRLPRPRPRPYPMPRP | -0.126
RRIRVRPPRLPRPRPRPGEIPRP | 0.0835
RRIRIRPPRLPRPRPRPCCQPRP | -0.0291
RRIRSRPPRLPRPRPRPTWNPRP | -0.0149
RRIRIRPPRLPRPRPRPHLWPRP | -0.256
RRIRHRPPRLPRPRPRPAMMPRP | -0.114
RRIRRRPPRLPRPRPRPEDKPRP | 0.103
RRIRNRPPRLPRPRPRPDICPRP | 0.0866
RRIRRRPPRLPRPRPRPMWPPRP | 0.265
RRIRVRPPRLPRPRPRPCIPPRP | -0.467
RRIRLRPPRLPRPRPRPRFWPRP | 0.486
RRIRQRPPRLPRPRPRPQWYPRP | -0.0123
RRIRHRPPRLPRPRPRPYRRPRP | -0.142
RRIRPRPPRLPRPRPRPWQNPRP | -0.136
RRIRWRPPRLPRPRPRPGPHPRP | -0.0302
RRIRWRPPRLPRPRPRPSVTPRP | 0.145
RRIRRRPPRLPRPRPRPKIMPRP | -0.0825
RRIRCRPPRLPRPRPRPHRWPRP | 0.317
RRIRQRPPRLPRPRPRPKGYPRP | -0.00146
RRIRQRPPRLPRPRPRPIQRPRP | -0.0376
RRIRDRPPRLPRPRPRPAFRPRP | 0.293
